Data: article PMC7475177, “[…] RESPONSE FACTOR39–MYB8 complex regulates low-temperature-induced lignification of loquat fruit”

B1: Ej4CL1 promoter DRE1 probe (dsDNA)
DNA 1: TCGCCTTGTTGGTTATGCCGACGCAGGATACTTGTCTG
DNA 2: CAGACAAGTATCCTGCGTCGGCATAACCAACAAGGCGA
B2: Ej4CL1 promoter DRE2 probe (dsDNA)
DNA 1: GTTCACAAGACAATCTGGCCGACCTCTTCACAAAATCAGT
DNA 2: ACTGATTTTGTGAAGAGGTCGGCCAGATTGTCTTGTGAAC

Target: EjERF39 (Eriobotrya japonica cv. Luoyangqing …, UniProt A0A482LZG5 1-253)
Experiment: EMSA; not given in the material; EMSA as described by Ge et al. (2017)
Conditions: protein: recombinant; tags: GST (pGEX-4T-1); label: 3' biotin

Sequence of EjERF39 (A0A482LZG5 entry or part of it): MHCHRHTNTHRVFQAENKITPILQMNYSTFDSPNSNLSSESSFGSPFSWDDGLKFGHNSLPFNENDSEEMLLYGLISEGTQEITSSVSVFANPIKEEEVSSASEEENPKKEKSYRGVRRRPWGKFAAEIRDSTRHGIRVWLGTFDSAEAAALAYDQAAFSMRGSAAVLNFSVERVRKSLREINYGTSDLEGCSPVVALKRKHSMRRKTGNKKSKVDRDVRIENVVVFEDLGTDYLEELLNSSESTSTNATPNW

Binder	binding result
B1	no binding
B2	binds
